Laboratory results: publication doi:10.1101/2021.12.01.470723 (bioRxiv, 2021)
Where a chain is given by its changes, count along the chain named. Names may count otherwise.

How the values were obtained:
[1] = biological target: the molecule itself; test: SEC; rh Bri2 BRICHOS D148N monomer fraction at 0.5, 1, 5, 10, 15 and 100 µmol L^-1; monomer to dimer
[2] = biological target: the molecule itself; test: SEC; Bri2 BRICHOS species after thrombin removal of His6-NT* from the fusion protein's monomer, dimer and oligomer fractions; 20 mmol L^-1 NaPi, 0.2 mmol L^-1 EDTA
[3] = biological target: the molecule itself; test: other fluorescence titration; Trp fluorescence of 2 µmol L^-1 rh Bri2 BRICHOS T206W monomers, 20 mmol L^-1 NaPi, 0.2 mmol L^-1 EDTA, pH 6.3-8.0; excitation 280 nm; monomer to dimer
[4] = biological target: the molecule itself; test: SEC; purified rh proSP-C BRICHOS variants on Superdex 200 GL

B1: rh Bri2 BRICHOS D148N (domain or fragment, human, UniProt Q9Y287 113-231, looked up)
chain: QTIEENIKIFEEEEVEFISVPVPEFADSDPANIVHNFNKKLTAYLDLNLDKCYVIPLNTSIVMPPRNLLELLINIKAGTYLPQSYLIHEHMVITDRIENIDHLGFFIYRLCHDKETYKL
notes: human integral membrane protein 2B (Bri2), BRICHOS domain, residues 113-231, with D148N; Isolated by SEC as monomer, dimer and oligomer fractions; the assay's format tells which fraction was used; also called D148N mutant; source: E. coli SHuffle T7, purified (Ni-NTA, thrombin cleavage, second Ni-NTA, SEC); not shown: His6, N-terminal, cleaved; NT* solubility tag, N-terminal, cleaved
Which “ratio of dimers to monomers at 0.5 µmol L^-1” value [1] does the source give for B1 here?
The value was ~1 dimers:monomers.

And the “stoichiometry N” value [2]?
The value was 2.

B2: rh Bri2 BRICHOS T206W (domain or fragment, human, UniProt Q9Y287 113-231, looked up)
chain: B1 chain with N36D, T94W
notes: human integral membrane protein 2B (Bri2), BRICHOS domain, residues 113-231, with T206W; Monomer and dimer fractions were used for Trp fluorescence; also called rh Bri2 BRICHOS Trp mutant; source: E. coli SHuffle T7, purified (Ni-NTA, thrombin cleavage, second Ni-NTA, SEC); not shown: His6, N-terminal, cleaved; NT* solubility tag, N-terminal, cleaved
Does B2 bind [3]?
Result: binds

B3: recombinant human (rh) wildtype proSP-C BRICHOS (domain or fragment, UniProt P11686 86-197, looked up)
chain: EHLVTTATFSIGSTGLVVYDYQQLLIAYKPAPGTCCYIMKIAPESIPSLEALTRKVHNFQMECSLQAKPAVPTSKLGQAEGRDAGSAPSGGDPAFLGMAVSTLCGEVPLYYI
notes: human prosurfactant protein C (proSP-C), BRICHOS domain, residues 86-197; By SEC mainly a trimer, with some dimers and monomers; also called rh proSP-C BRICHOS; wt proSP-C BRICHOS; source: E. coli Origami 2 (DE3) pLysS, purified (Ni-NTA, ion exchange QFF; thrombin cleavage); not shown: thioredoxin, N-terminal, cleaved
With B3 as the protein, how does the “stoichiometry N” value [4] read?
The value was 3.

B4: rh proSP-C BRICHOS D105N (domain or fragment, human, UniProt P11686 86-197, looked up)
chain: B3 chain with D20N
notes: human prosurfactant protein C (proSP-C), BRICHOS domain, residues 86-197, with D105N; By SEC a trimer, with more dimers and less monomers than the wildtype; also called D105N mutant; source: E. coli Origami 2 (DE3) pLysS, purified (Ni-NTA, ion exchange QFF; thrombin cleavage); not shown: thioredoxin, N-terminal, cleaved
For B4, which “stoichiometry N” value [4] is on record?
Its value is 3.
